Measurements reported in patent publication US20250000991A1 (Eli Lilly, published 2025).
Where a chain is given by its changes, count along the chain named.

T1: human Nectin-4-eGFP on T24 cells (clone 3) (human, UniProt Q96NY8 32-510)
T1 sequence: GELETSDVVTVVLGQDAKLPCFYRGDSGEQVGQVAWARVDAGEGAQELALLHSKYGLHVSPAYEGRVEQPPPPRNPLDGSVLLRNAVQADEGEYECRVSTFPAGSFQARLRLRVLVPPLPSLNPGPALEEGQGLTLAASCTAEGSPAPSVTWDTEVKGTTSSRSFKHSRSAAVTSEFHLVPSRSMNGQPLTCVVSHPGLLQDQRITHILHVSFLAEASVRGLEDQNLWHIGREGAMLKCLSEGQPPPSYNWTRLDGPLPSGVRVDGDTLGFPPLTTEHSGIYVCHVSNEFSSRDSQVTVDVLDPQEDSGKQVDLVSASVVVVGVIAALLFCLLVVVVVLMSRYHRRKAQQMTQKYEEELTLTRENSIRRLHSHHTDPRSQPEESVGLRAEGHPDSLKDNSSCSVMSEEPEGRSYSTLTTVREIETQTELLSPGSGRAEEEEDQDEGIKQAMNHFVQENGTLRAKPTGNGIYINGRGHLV

T2: human nectin-4 on cells (human, UniProt Q96NY8 32-510)
T2 sequence: T1 sequence

T3: recombinant HIS-tagged human nectin-4 (Acro Biosystems Cat. No. NE4-H52H3) (human, UniProt Q96NY8 32-349)
T3 construct: Bought protein; not shown: HIS tag
T3 sequence: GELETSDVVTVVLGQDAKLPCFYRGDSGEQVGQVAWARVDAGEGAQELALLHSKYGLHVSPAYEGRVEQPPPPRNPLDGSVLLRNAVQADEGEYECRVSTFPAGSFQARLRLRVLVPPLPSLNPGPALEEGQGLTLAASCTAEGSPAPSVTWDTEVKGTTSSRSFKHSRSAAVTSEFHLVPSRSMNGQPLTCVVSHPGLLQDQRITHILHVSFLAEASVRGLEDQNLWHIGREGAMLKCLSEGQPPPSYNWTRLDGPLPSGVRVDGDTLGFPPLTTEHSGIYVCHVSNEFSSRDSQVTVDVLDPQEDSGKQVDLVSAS

T4: recombinant HIS-tagged cyno nectin-4 (Acro Biosystems Cat. No. NE4-C52H4) (cyno, UniProt A0A2K5WES1 32-349)
T4 construct: Bought protein; HIS tag not described
T4 sequence: T3 sequence with V39A, I230V

T5: recombinant HIS-tagged rat nectin-4 (R&D Systems Cat. No. 9997-N4-050) (rat, UniProt D3ZET1 31-348)
T5 construct: Bought protein; HIS tag not described
T5 sequence: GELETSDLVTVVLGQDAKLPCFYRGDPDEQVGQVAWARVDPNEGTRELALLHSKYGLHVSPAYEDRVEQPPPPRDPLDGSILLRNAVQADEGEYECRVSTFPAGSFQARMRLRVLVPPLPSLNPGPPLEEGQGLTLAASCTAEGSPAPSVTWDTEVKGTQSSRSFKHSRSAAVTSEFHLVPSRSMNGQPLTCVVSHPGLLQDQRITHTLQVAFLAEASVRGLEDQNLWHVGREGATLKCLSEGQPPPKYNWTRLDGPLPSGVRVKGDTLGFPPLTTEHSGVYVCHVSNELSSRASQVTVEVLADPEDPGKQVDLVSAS

B1: Ab1a (antibody, human IgG1, kappa, L234A L235A, V domains shown)
VH: QVQLVQSGAQVKKPGASVKVSCKASGYTFTGYYIHWVRQAPGQGLEWMGWINPNSGGTNYAQKFQGRVTMTRDTSISTAYMELSRLRSDDTAVYFCAREDWDFDYWGQGTLVTVSS
VL: EIVLTQSPGTLSLSPGERATLSCRTSQSVSSSYLAWYQQKPGQAPRLLIYGASNRATDIPDRFSGSGSGTDFTLTINRLEPEDFAVYYCQQYGSSPITFGQGTRLEIKR
notes: Unconjugated antibody; also called nectin-4 antibody Ab1a
B2: Ab7 (antibody, human IgG1, lambda, L234A L235A, V domains shown)
VH: QVQLVQSGAEVKKPGASVKVSCKASGYTFTNYYMHWVRQAPGQGLEWMGIINPSSGSASYAQKFQGRVTMTRDTSTSTVYMELSSLRSEDTAVYYCAREGVGRDILQAFDIWGQGTLVTVSS
VL: QSVLTQPPSVSEAPRQRVTISCSGSSSNIGNNAVNWYQQLPGKAPKLLIYYDDLLPSGVSDRFSGSKSGTSASLAISGLQSEDEADYYCAAWDDSLNGHVFGGGTKLTVLG
notes: Unconjugated antibody; also called Antibody 7; nectin-4 antibody Ab7
B3: Ab8 (antibody, human IgG1, lambda, L234A L235A, V domains shown)
VH: QVQLVQSGAEVKKPGASVKVSCKASGYTFTSYYIHWVRQAPGQGLEWMGIINPISGRTSSAQKFQGRVTMTRDTSTSTVYMELSSLRSEDTAVYYCAKEGVGGELLRAFDIWGQGTLVTVSS
VL: B2 VL with H99F
notes: Unconjugated antibody; also called Antibody 8; nectin-4 antibody Ab8
B4: Ab6 (antibody, human IgG1, lambda, L234A L235A, V domains shown)
VH: QVQLVQSGAEVKKPGASVKVSCKASGYTFTGYYMHWVRQAPGQGLEWMGIINPSGGSTTYAQKFQGRVTMTRDTSTSTVYMELSSLRSEDTAVYYCARGRLGTYFDYWGQGTLVTVSS
VL: SYVLTQPPSVSVAPGQTARITCGGNNIGSKSVHWYQQKPGQAPVLVVYDDSDRPSGIPERFSGSNSGNTATLTISRVEAGDEADYYCQVWDRSSDQVVFGGGTKLTVLG
notes: Unconjugated antibody; also called Antibody 6; nectin-4 antibody Ab6
B5: Ab6 ADC (Ab6 conjugated as in Formula XI, DAR of 8) (antibody, human IgG1, lambda, L234A L235A, V domains shown)
VH: B4 VH
VL: B4 VL
modifications: camptothecin analog linker-payload of Formula XI on cysteine thiols after full reduction, DAR of 8 per antibody; positions not given
notes: Antibody-drug conjugate of Ab6; also called Ab6 (ADC column)
B6: Ab3 (antibody, human IgG1, kappa, L234A L235A, V domains shown)
VH: EVQLVESGGGLVKPGGSLRLSCAASGFNLNHYNMNWVRQAPGKGLEWVSSVSSGGGFRYYADSVRGRFTISRDNAKNSLYLQMNSLRAEDTAVYYCARGAVFHDAFDIWGQGTLVTVSS
VL: DIQLTQSPSFLSASVGDRVTITCRASQDISSYLAWYQQKPGKAPKLLIYVASTLQSGVPSRFSGSGSGTEFTLTISSLQPEDFATYYCQQINSYPFTFGQGTKVEIKR
notes: Unconjugated antibody; also called Antibody 3; nectin-4 antibody Ab3
B7: Ab4 ADC (Ab4 conjugated as in Formula XI, DAR of 8) (antibody, human IgG1, kappa, L234A L235A, V domains shown)
VH: QVQLQESGPGLVKPSETLSLTCTVSGGSISGYYWSWIRQPPGKGLEWIGYIYYSGSTNYNPSLKSRVTISVDTSKNQFSLKLSSVTAADTAVYYCARLGIFFDAFDIWGQGTLVTVSS
VL: B6 VL with D28G, V50A, I91F, F96W
modifications: camptothecin analog linker-payload of Formula XI on cysteine thiols after full reduction, DAR of 8 per antibody; positions not given
notes: Antibody-drug conjugate of Ab4; also called Ab4 (ADC column)
B8: Ab5 (antibody, human IgG1, kappa, L234A L235A, V domains shown)
VH: QVQLVQSGAEVKKPGASVKVSCKASGYTFTSYYVHWVRQAPGQGLEWMGIINPSIISTSYAQKFQARVTMTRDTSTSTVYMELSSLRSEDTAVYYCARGLNFDAFDIWGQGTLVTVSS
VL: B6 VL with D28G, V50A, I91L, S93N
notes: Unconjugated antibody; also called Antibody 5; nectin-4 antibody Ab5
B9: Ab3 ADC (Ab3 conjugated as in Formula XI, DAR of 8) (antibody, human IgG1, kappa, L234A L235A, V domains shown)
VH: B6 VH
VL: B6 VL
modifications: camptothecin analog linker-payload of Formula XI on cysteine thiols after full reduction, DAR of 8 per antibody; positions not given
notes: Antibody-drug conjugate of Ab3; also called Ab3 (ADC column)
B10: Ab4 (antibody, human IgG1, kappa, L234A L235A, V domains shown)
VH: B7 VH
VL: B6 VL with D28G, V50A, I91F, F96W
notes: Unconjugated antibody; also called Antibody 4

Target: T1, human Nectin-4-eGFP on T24 cells (clone …)
Experiment: cell-based or functional assay

% activity (max GFP signal loss compared to enfortumab mAb (100%)) | EC50 (nM) of nectin-4-eGFP signal loss | Binder
145% | 2.54 nM | B1
66.5% | 3.37 nM | B2
53.7% | 3.68 nM | B3
65.1% | 41.4 nM | B4
118% | 2.26 nM | B5
64.4% | 1.3 nM | B6
143% | 2.1 nM | B7
40.1% | 2.69 nM | B8
136% | 2.68 nM | B9
40.9% | 0.41 nM | B10

Target: T2, human nectin-4 on cells
Experiment: cell-based or functional assay

Binder | Cytotoxicity IC50, NCI H1781 cells | Cytotoxicity IC50, T24 Nectin-4 clone 108 cells
B5 | 0.0608 nM | 0.0783 nM
B7 | 0.311 nM | 0.115 nM
B9 | 0.0553 nM | 0.0825 nM

Target: T2, human nectin-4 on cells
Experiment: flow cytometry, NCI-H1781 cells (low endogenous nectin-4)

% of enfortumab (Average Max MFI) | Average Max MFI | EC50 | Binder
84.5% | 77000 MFI | 0.2 nM | B1
96% | 87000 MFI | 0.09 nM | B2
99.6% | 90000 MFI | 0.1 nM | B3
93.8% | 85000 MFI | 0.03 nM | B4
105% | 96000 MFI | 0.1 nM | B6
102% | 93000 MFI | 0.08 nM | B8
95.8% | 87000 MFI | 0.14 nM | B10

Target: T2, human nectin-4 on cells
Experiment: flow cytometry, SUM190PT cells (high endogenous nectin-4)

% of enfortumab (Average Max MFI) | Average Max MFI | EC50 | Binder
55.6% | 590000 MFI | 0.12 nM | B1
112% | 1.2e+06 MFI | 0.14 nM | B2
81.9% | 8.7e+06 MFI | 0.11 nM | B3
127% | 1.3e+06 MFI | 0.17 nM | B4
112% | 1.2e+06 MFI | 0.23 nM | B6
145% | 1.5e+06 MFI | 0.31 nM | B8
97.9% | 1e+06 MFI | 0.19 nM | B10

Target: T3, recombinant HIS-tagged human nectin-4 …
Experiment: SPR Biacore 8K+, ADC captured via anti-human Fc, nectin-4 analyte, 37 C;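 further: Nectin-4 injected over captured ADC at 0 to 600 nM for 2 min association, then 10 min dissociation, with a reference flow cell lacking ADC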

Kd | koff | kon | Binder
91.8 nM | 0.163 s⁻¹ | 1.78e+06 M⁻¹ s⁻¹ | B5
204 nM | – | – | B7
1.03 nM | 0.000437 s⁻¹ | 424000 M⁻¹ s⁻¹ | B9

Target: T4, recombinant HIS-tagged cyno nectin-4 …
Experiment: as above

Kd | koff | kon | Binder
0.986 nM | 0.000426 s⁻¹ | 432000 M⁻¹ s⁻¹ | B9

Target: T5, recombinant HIS-tagged rat nectin-4 …
Experiment: as above

Kd | koff | kon | Binder
114 nM | 0.105 s⁻¹ | 925000 M⁻¹ s⁻¹ | B5
5.28 nM | 0.000903 s⁻¹ | 171000 M⁻¹ s⁻¹ | B9
